# According to a protein production outcome set (Wang et al. 2014):
# Experiment: label from the status in PepcDB records
# 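Note: failed if final PepcDB status was selected cloned or expressed and not failed if soluble or beyond.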
row,Sequence,protein production
1,MEDLLPTLPSLDHRDALPNALASPVLPAGQSDAQLVRTWLDTKYAAGLGIRASTRAQYALEAHRLLWYAHALGRPLASWQVADANGYLAFLADPPAHAVGDGRVRQDSPAWRPLRGPLSEASRRQTATIVGGLFEWLVGVEALRVNPFQAVPRARSARGPGSQRRFLEAEQLAAVFDAVEARPAPTLWAQLHKARDRLLLALLFHTGLRASEVTALTWPDFERQRGRHGDFWTVRIREAKGGSDQLVPCDNVMAELARFRQLVGLSPEPRATDTMAVVPAMAGGRQRLAPLTDTLALQRRLSRPVRTRQGLYTIVRQVFEAAAVRLEASGYAEGAANLRAASTHWLRHSHATHLLRAGVPVTDVQRTLRHRDINTTRRYTHEALEDVARSIGGKLPAVLEHHHHHH,failed
2,MNPLDVWYNIKMNVKKQIFKGTLYAVVAGCMWGISGIFGQLFFRDYHGSPLWITSTRLTIAGIILLAMSFSRDHKRFFDVWKSKKNMPTLFLYVFGGVFSVQYFYYVAIQLSNSATATILQYTAPVFIMLYLLIFQRQVPKPKSVLFVILAMIGVFLLITDGNIKHLSISPLALVTGLLAGVAVVIYSIIPRPLLDKYGALNMTGWGMMLAGIACNIFYPVWRIDFRIEPLSIFYVLTISIVGTALAFLLLLRAFQLISPLVVSVATATEPLTSVFLSIPLFGLKLTPLELLGIVMVIVSVILLSKSEQA,failed
3,MKSTAEDLINGEISSVGVYLYNKLKNYVFEKESSEKTAIRKADFGKIIEEKTDLEEFPAVSKEDIKAICEILYNSKDIEIIIKQLYVFQSDINKSLDEIKEDFVSLFPKTINLENGRINLETGERISFLLKIFEVLDEGIQTALNRAVDEGSSGASNALSNRRHFDMKNKLANGFKEVKKLINESSRAVQEKKIPTEKLPSLFISYAREDDEPFVEKLYQGLKEKGFEIWWDRTAMKNRGRTFLQEIRDAIEDSDLLIAVIGPKAIESDSVRYEWEHALLFSKGVIPVLRMGDYNLLLPEMSKLHCPDFREKRPYEEALEELIRLLKEPIPSLGPIIGIPSLPPNHLPRKNDLNIIKEIILADTVKPVVITSTKQVTALQGMGGMGKSVLSAAFARSAETRRAFYDGIFWITVGLEASESDASGNMRLIGTNLGDDPVNYSSKKEAEASLSKMLSDKVCLIILDDVWKVPQATPFFNALGSRCRLLITTRNDDVVTSLGAQKHEIKVLGKPEALKLLANWCEQEIDSLTSKAAEVARECGYLPLALSICGAMAKSGISWTYILEALQEADLEFIEAQLPNYPDPNVGRALKVSVDFLSLEDPNAVMRYQELVIFPEDELVPETTIAMLWEHTGNLKRRNVEKLLTKLKDRSLLRLDGEAPNRLISLHDLQLDYLRATVGDLTSLHNKLLAAYGKECGNKWSNGSEDGYFFEHLAYHMKEAGRREELHKLLLDFEWMCKKIKCVRLMQEKDGKGIPDLNSLLHDYEFLSNEPKIELVKEAIQLSFDIIAKDEAQFSGQLIGRLQVFNQNEEIRLLLDQATQWKEEDVRLIPLQPCLKPPGGSLKRTFKAHAHPINDVVITSNGKVAISASTDKTIRIWDLNEWIEKGTLKGHLTPVTAIAVSLDGKYAASCSYHIMCLIGDNNIKVWDLEKREEKTTLKGHTHWVQTVAITPDGKYIVSGSLDKTIKFGI,failed
4,RNVWVVAELDEQGVSEASLQMLTPARRIADKLGESVVGVIAGPPGSSQLAVEMVERGADEVIVVEHERLSEYYPDVVGSVIVELSLKYKPSVILFAATARGREMAPYVANTLKTGITADCTDFDVDPKTRDVLLIRPPFSAIMLAYIRTPFRRPQIGTARPNVFPLPERQPGRQGRIVREEVEPPEPMARLVNRVRIPRSEVP,failed
5,MEEERRDDYKFLRIQDAFKALHLHVNLIGVIVELGFSNGSDCSCTLKIVDPWYSGSGLPVKFVARTIRDLPRVESIGDIILLSRVKIVLINRKITALCNETTSSSFALFNGKHSVDSIPYQSSPKFLMREQDKNFLSNLREWMITYKFEDGS,not failed
6,MIEYRIFRFPMYPLLARFFSSHQQALGVLFALLSAIGFSAKAIFIKLAYVEPVDAVTLLALRMVFSVPFFVFAMLHGRAQATPMARHDWLAVLLLGLVGYYLASFLDFLGLQYISAGLERMILFLYPTMVVLISALVFRAAIGRRVWFALLLSYVGIGLVFVHDFHITSDGLFMGSSLVFASALAYAIYLIGAGHTIARIGSMRFTAYAMTVACLACIAQFLLTHPLDDLQQSTRVYGLSIGMALFSTVMPAFALAAAMRRIGSMQTSMIGALGPVATIYLAYVFLAEQLSLTQLAGSGLVLIGVMMISMRKME,failed
7,MDVAGEKQQRKGEAIARIEAEKNAYTVAQLADEYFERMIAGRWKHPNIVRSRIEKDIKPAIGSLKVEDVKPRHIDDVLKAVMKRGAPSIANDTLRWLKRMFNYAIKRHIIEYNPAAAFLEHHHHHH,failed
8,MEALAELIKRKVPNEGLIIEVGVGFYLKVAKKLKEYGFNVVVVDINQEAVKNAIKERIPGFVDDVFNPNLKIYLKARAIYSIRPNPEIMMALLTLAKKVKVPLYIVPLSGDVPPREMKLINYKGISVYVWEP,failed
9,MAAAAAGPASSQRLFQSFSDALIDGDPQAALEELTKALEQNPDDAQYYCQRAYCHILLGKYRDGIADVKKSLELNPNNCTALLRKGICEYHEKDYASALETFAEGQKLDSTDTNFDTWIKRCQEIQNGSESEVSASQRTQSKIKYDWYQTESHVIITLMIKSVQKNDVRVGFSERELSALVKIPAGEDYSLKLRLLHPIIPEQSTFKVLSTKIEIKMKKPEAVRWEKLEGQGDEPTPKQFTADVKNMYPSSSHYTRNWDKLVGEIKEEEKNEKLEGDAALNKLFQQIYSDGSDEVKRAMNKSFMESGGTVLSTNWSDVGKRKVEINPPDDMEWKQY,failed
10,MADIDQASKTEMEAAAFRHLLRHLDEHKDVQNIDLMIQADFCRNCLAKWLMEAATEQGVELDYDGAREYVYGMPFAEWKTLYQKPASEAQLAAFEAKQAARKR,not failed
11,MRKNEYVNLPVICLVGPTASGKSGLAVRVCRRLYVDEHPAEIINTDSMVVYRGMDIGTATPTLREQRTVVHHLVSILDVTVPSSLVLMQTLARDAVEDCLSRGVIPVLVGGSALYTKAIIDEMSIPPTDPEVRARWQEKLDAEGPRVLHDELARRDPKAAESILPGNGRRIVRALEVIDLTGSFTATIPDGTLHWPKTVQMGLELSRKDIDQRIADRVDQMWAYGFVDEVRSLANVGLREGLTASRALGYRQVLEYLNGDYDEDEARRRTIIGTRRFARKQLMWYRRDDRIEWFNALAPDLDDRVVARVLTALTTDEED,failed
12,MARLSLVPGRGGLVTEWTVQGQPILYFDRERFQDPSLSVRGGIPILFPICGNLPQDQFNHAGKSYRLKQHGFARDLPWEVIGQQTQDNARLDLRLSHNDATLEAFPFAFELVFSYQLQGHSLRIEQRIANLGDQRMPFSLGFHPYFFCREKLGITLAIPANDYLDQKTGDCHGYDGQLNLTSPELDLAFTQISQPRAHFIDPDRNLKIEVSFSELYQTLVLWTVAGKDYLCLEPLEHHHHHH,failed
13,MKSEFYQGKIKQYDATKGFGFIGGLEQDVFFHISDFPLEEGEPKRNERVKFMVVENNGKFKAVKIQRVVDQSAKAKKSRAVENNTSITSALLSNFKK,failed
14,MVIGLIATLYRPKEATLYVLLYLLLGAIGLPVFSGGNGGLHTFIGQTGGFLLFFPLRALVTSLIANRKKILIQIFIANFLGEVVLFIGGAIGFIIFTHSLILTTLKLVVLPFVLPDLIKITLTTLFSLLLLKALQSQSYFKIEK,failed
15,MHQDVLLGGRYRLGAQLGGGSEAYVNEAWDLLSGKTVAVKIFRSTNSLDNAPFRRELEIHGRLRHRNIVRILDSGDTDSRGDGAGVGQDNRHFVVMELVAGKDLRWILQDKPASPEQTAAWMTDVARALAHVHRRGIVHNDIKPGNILVDFASDPGGPGVAKLADFGIALNGRHGVPNSSSGTPHYLSPEEVCGGTSTTASDIYSLGLVALECLTGTKAFPGPPLESMVARTLGEPRIPGTVRRRWSMVLHAMTDPDPAGRPSASQTVGMLRRLSW,failed
16,MASNMDREMILADFQACTGIENIDEAITLLEQNNWDLVAAINGVIPQENGILQSEYGGETIPGPAFN,failed
17,MFKNKLAVLFTCLSVFSFSAQSGSFDTVTLGSKGGIQDGNLTAFLIKSEADSNFVMLDAGSVVNGLIVSEQKGAFKDITVPDSSPYTKVGYLLKDKIKGYFISHAHLDHVAGLIISSPDDSKKPIYGLAATNKDLMKNYFNWSAWPNFGNKGEGFKLNKYNYVDLQPGVWSPIAETTMSVMSLPLSHSGGQSTVFILKDSEGDVFAYFGDTGPDEVEKSSAMKTAWSALAPFVKQGKLKGIIIEVSFTNETPDKSLFGHLTPNWLVKELSVLEDMNGKGSLNDLNVAISHIKYSLKNSEDPKVIIKKQLAEANDLGVNFIFPEQGDSLQF,failed
18,MDLVSLVERIGEAPTAALFGLITGITFGVAAQRSRFCLRAATVEFARGRMEDKVAVWLLTFSTALVWVQAAQLMGLMNGADARMMAVPGSWSGAIIGGLMFGAGMVLARGCSGRLLVLAATGNLRSVVSGLIFAVVAQMSLSGLLSPLRDKLAALWITEGGRNMNLLSTFGLPEYGGLVLGLVCAVLALVLARRHRIGAARLVFASGVGFAVALGWVLTYALSQVAFEPVQIESATFTGPSAHTLMFFLDRNAVLEFDVGLVPGVFIGAMIAAALAGEMKIQAFDGPVTMRKAMIGAALMGFGGMLAGGCAIGAGVTGGSIFVGTAWAALFFMWVGAMATDFLIDQRAASPRAA,failed
19,MLDDLDLFVAIVDAGSLSAAAKRMAMPAATLTRRLQALEAELGCKLLNRSARRLVPTNEGWQYYEQCKPLLAALRQAADSLDATLNRVEGVVRAMAPVSMANSLLLPVWQRLLQRHPAVRLELVLSNGTEDVWAMGGDLAIRVGPQPDSQLNQRKLGQVSAVLAAAPSYLEARGRPQAFEQLAGHDLLLTTPLQNWKLHRVDGDEERSLPDGARLLVNDMLLGVRMAEAGCGVVLCPLSQCHRELADGRLERILQDWWIPPRPVYAVWPQRRAMPARVRALLDILLEFAAEEPLLRS,failed
20,MSVKIVHHKNFLGMIKELMKDAQSVLDIGCGVGATLKDFPCPIKIGVDAHGPYLEKARLATSFLPIKYEAQRIGEIFLAKSVDCVSMIDVIEHMEKGVGYEVLAQAERIAVKRVIVFTPRGFFKQKAEDHYGLGGESFQEHRSGWEIEDFTQRGYQVIVFNQFHDQSNLAFVESYGKDAKPMDALLAWKELR,not failed
21,MVCVDFIDQKVYSEAEGLFVSDLDLGIKGLIRARYPFALDSDFISYGNLSHYCMNYLDEIVQRANQKNEKIKYNVTTLMKEEEKPFNVEERLNKQATIGQRIADDVARFGGSWTFIIVFVSIMAIWMLVNIMKPFGIQFDPYPFILLNLALSTIAAIQAPLIMMSQNRAADYDRLQARNDFNVNKTSELEIRLLHEKIDHMVQQDQFELLEIQKLQTEMLVSLGNQLAQLKQLQK,failed
22,MELKILVTGGNVFVPGRLNAHFSTVVYLEHKDRRIIIDPGNLSSMDELEEKFSELGISPDDITDVLFTHVHLDHIFNSVLFENATFYVHEVYKTKNYLSFGTIVGRIYSKVISSWKNVVLLKGEESLFDEKVKVFHTPWHAREHLSFLLDTENAGRVLITGDITPNRLSYYDIIKGYGSVQVKNFLDRVGRIDLLVFPHDAPLKPEVKK,not failed
23,SSPQDTCCPPDSWPALKVDYKPKGKLEDIGKGLKAYVVGNGPRAVIALNDVFGIESGHSKEICDAIADKGFTVVFPDVFRGKPLQVSDMSKLFDELPGWAKQFDYEPALRKDVVEVILPYLHDKLGFKSNDQIALAGFCWGAFMLFHLAGDTKLPGGPFACGVSFHPSVQIEGVFQRDPLQLIDRATCPQLLLPSAGEPDYMKEEGDAIKKLRAKPFGASCGVKTFPSMQHGWVNRGDRNDPQVVKEAQEALQLAVDFMMRHTKPKA,not failed
24,TVACPGRGRARPVCWKRSEMATCAVEVFGLLEDEENSRIVRVRVIAGIGLAKKDILGASDPYVRVTLYDPMNGVLTSVQTKTIKKSLNPKWNEEILFRVHPQQHRLLFEVFDENRLTRDDFLGQVDVPLYPLPTENPRLERPYTFKDFVLHPRSHKSRVKGYLRLKMTYLPKTSGSEDDNAEQAEELEPGWVVLDQPDAACH,failed
